Laboratory results reported in patent publication US20190062414A1 (PHILOGEN S P A, published 2019).

T1: BCD domains of murine tenascin-C (murine, UniProt Q80YX1 1349-1620, limits assumed)
T1 construct: domain: BCD domains; Coated on a CM5 chip; also called domain BCD of murine Tenascin-C
T1 sequence (looked up): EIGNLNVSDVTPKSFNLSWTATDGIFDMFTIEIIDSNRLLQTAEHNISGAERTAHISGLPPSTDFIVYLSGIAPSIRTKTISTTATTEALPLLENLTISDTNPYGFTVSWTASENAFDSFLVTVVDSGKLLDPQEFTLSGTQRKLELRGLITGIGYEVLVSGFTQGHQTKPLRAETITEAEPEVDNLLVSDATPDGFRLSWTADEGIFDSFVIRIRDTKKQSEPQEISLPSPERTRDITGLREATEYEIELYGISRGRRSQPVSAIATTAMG

T2: D domain of human Tenascin-C (human, UniProt P24821 1622-1711, limits assumed)
T2 construct: domain: D domain; Coated on a CM5 chip; also called domain D of human Tenascin-C; human tenascin-C D domain
T2 sequence (looked up): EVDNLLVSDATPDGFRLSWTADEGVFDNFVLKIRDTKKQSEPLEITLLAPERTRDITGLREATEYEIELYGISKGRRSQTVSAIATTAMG

B1: scFv(CPR01) (scFv)
scFv: EVQLLESGGGLVQPGGSLRLSCAASGFTFSSYAMSWVRQAPGKGLEWVSAIKARGGLTYYADSVKGRFTISRDNSKNTLYLQMNSLRAEDTAVYYCAKGGAPFDYWGQGTLVTVSSGGGGSGGGGSGGGGSSELTQDPAVSVALGQTVRITCQGDSLRSYYASWYQQKPGQAPVLVIYGKNNRPSGIPDRFSGSSSGNTASLTITGAQAEDEADYYCNSSPLNRLAVVFGGGTKLTVLG
notes: Expressed in CHO.S cells as scFv
B2: scFv(CH01) (scFv)
scFv: EVQLLESGGGLVQPGGSLRLSCAASGFTFSPYAMSWVRQAPGKGLEWVSAITGQGGVTYYADSVKGRFTISRDNSKNTLYLQMNSLRAEDTAVYYCAKISSFHFDYWGQGTLVTVSSGGGGSGGGGSGGGGEIVLTQSPGTLSLSPGERATLSCRASQSVSSHHLAWYQQKPGQAPRLLIYDASSRATGIPDRFSGSGSGTDFTLTISRLEPEDFAVYYCQQPRGAPTTFGQGTKVEIK
notes: First disclosed in PCT/EP2015/067309; also called anti-MMP3 antibody CH01

Columns and labels:
[1] = target: T1, BCD domains of murine tenascin-C; experiment: Biacore (SPR), scFv on BCD domains of murine tenascin-C
[2] = target: T2, D domain of human Tenascin-C; experiment: Biacore (SPR), scFv over CM5 chip coated with human tenascin-C D domain
Description: CPR01 was analysed for antigen binding by Biacore using a CM5 chip coated with the human tenascin-C D domain. The flow rate for the Biacore analysis was set at 10 μL/min.

human MMP3 = human MMP3 (human, UniProt P08254 100-272); experiment: Biacore (SPR), scFv; set-up not described
murine MMP3 = murine MMP3 (murine, UniProt P28862 100-272); experiment: Biacore (SPR), scFv; set-up not described
Chain of murine MMP3 (P28862 100-272): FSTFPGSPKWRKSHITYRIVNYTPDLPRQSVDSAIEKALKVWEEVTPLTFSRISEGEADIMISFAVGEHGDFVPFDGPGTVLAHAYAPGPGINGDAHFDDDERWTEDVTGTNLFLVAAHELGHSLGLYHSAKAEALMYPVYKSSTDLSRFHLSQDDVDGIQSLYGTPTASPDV

Chain of human MMP3 (P08254 100-272): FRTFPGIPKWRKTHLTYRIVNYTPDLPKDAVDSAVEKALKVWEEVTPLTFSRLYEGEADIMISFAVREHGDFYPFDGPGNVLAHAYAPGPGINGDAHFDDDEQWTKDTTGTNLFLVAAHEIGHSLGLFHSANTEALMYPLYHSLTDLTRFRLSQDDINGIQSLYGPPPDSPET

Binder	Kd [1] [nM]	koff [1] [s⁻¹]	kon [1] [M⁻¹ s⁻¹]	Kd [2] [nM]	koff [2] [s⁻¹]	kon [2] [M⁻¹ s⁻¹]	Kd (human MMP3) [nM]	koff (human MMP3) [s⁻¹]	kon (human MMP3) [M⁻¹ s⁻¹]	Kd (murine MMP3) [nM]	koff (murine MMP3) [s⁻¹]	kon (murine MMP3) [M⁻¹ s⁻¹]
B1	29	0.007	240000	70	0.011	151000						
B2							28	0.0047	170000	29	0.0025	80000
